Reference: article PMC3655812 (Molecular Biology of the Cell, 2013)
Numbering of substitutions follows the chain as printed. Names may count otherwise.

B1: MBP-Mgm101 (wild-type fusion of maltose-binding protein with Mgm101 lacking the mitochondrial targeting signal) (natural protein, yeast, UniProt P32787 23-269, looked up)
chain: VVSTGTSNTATAGAVRKSFNSTETKPVFATKSEAGNGSHMKEYSSGINSKLGGTPLETRSTADDSLNNSYKQVKGDIDWYTSWYGLGMKPFEAKVQKDLIEPLDPKDIEIKPDGLIYLPEIKYRRILNKAFGAGGWGLVPRSQTIVTSKLVTREYGLICHGQLISVARGEQDYFNEAGIPTATEGCKSNALMRCCKDLGVGSELWDPVFIKKFKVDHCTEKFVEHVTTKRKKKIWLRKDRQVEYPYK
B2: Mgm101^K253A (tag-free) (natural protein, yeast, UniProt P32787 23-269, looked up)
chain: B1 chain with K231A
B3: MBP-Mgm101^Y268A (natural protein, yeast, UniProt P32787 23-269, looked up)
chain: B1 chain with Y246A
B4: Mgm101^(K251-K253)A (tag-free) (natural protein, yeast, UniProt P32787 23-269, looked up)
chain: B1 chain with K229A, R230A, K231A
B5: Mgm101^Y139A (tag-free) (natural protein, yeast, UniProt P32787 23-269, looked up)
chain: B1 chain with Y117A
B6: MBP-Mgm101^(K251-K253)A (natural protein, yeast, UniProt P32787 23-269, looked up)
chain: B1 chain with K229A, R230A, K231A
B7: MBP-Mgm101^W257A (natural protein, yeast, UniProt P32787 23-269, looked up)
chain: B1 chain with W235A
B8: MBP-Mgm101^K253A (natural protein, yeast, UniProt P32787 23-269, looked up)
chain: B1 chain with K231A

Target: the molecule itself
Assay: SEC

Binding result, binds:
B1, B2, B3, B4, B5, B6, B7, B8
